Key:
[1] = molecular target: Soluble FcγRIIb extracellular domain with C-terminal 10xHis tag (UniProt P31994); assay: SPR; IIb-Fold / IIaR-Fold
[2] = molecular target: Soluble FcγRIIaR extracellular domain with C-terminal 10xHis tag (UniProt P12318); assay: SPR; fold relative to control v27293
[3] = molecular target: Soluble FcγRIIb extracellular domain with C-terminal 10xHis tag (UniProt P31994); assay: SPR; fold relative to control v27293
[4] = molecular target: Soluble FcγRIIaR extracellular domain with C-terminal 10xHis tag (UniProt P12318); assay: SPR; fold change in affinity over WT v16463
[5] = molecular target: Soluble FcγRIIb extracellular domain with C-terminal 10xHis tag (UniProt P31994); assay: SPR; fold change in affinity over WT v16463
[6] = molecular target: Soluble FcγRIIb extracellular domain with C-terminal 10xHis tag (UniProt P31994); assay: SPR; selectivity relative to control v27293
[7] = molecular target: Soluble FcγRIIaR extracellular domain with C-terminal 10xHis tag (UniProt P12318); assay: SPR, antibody captured on immobilised HER2, soluble receptor as analyte
[8] = molecular target: Soluble FcγRIIb extracellular domain with C-terminal 10xHis tag (UniProt P31994); assay: as above
[9] = molecular target: Biotinylated FcγRIIb extracellular domain-Fc fusion (human IgG1 Fc with L234A_L235A_D265S) (human) (UniProt P31994); assay: competition electrochemiluminescence, antibody on HER2-coated plate, biotinylated FcγRIIb-Fc; competitor FcγRIIaR-Fc at 10x
[10] = molecular target: Soluble FcγRIIaR extracellular domain with C-terminal 10×His tag (UniProt P12318); assay: SPR; KD of WT v16463 / KD of variant
[11] = molecular target: Soluble FcγRIIb extracellular domain with C-terminal 10×His tag (UniProt P31994); assay: SPR; KD of WT v16463 / KD of variant
[12] = molecular target: Soluble FcγRIIb extracellular domain with C-terminal 10×His tag (UniProt P31994); assay: SPR; IIb-Fold / IIaR-Fold (FcγRIIb against FcγRIIaR)
[13] = molecular target: Soluble FcγRIIaR extracellular domain with C-terminal 10×His tag (UniProt P12318); assay: SPR (Biacore 4000), antibody captured on immobilised HER2, receptor as analyte
[14] = molecular target: Soluble FcγRIIb extracellular domain with C-terminal 10×His tag (UniProt P31994); assay: as above
[15] = molecular target: FcγRIIaR, soluble extracellular domain (UniProt P12318); assay: SPR; fold change in affinity over wild-type v16463
[16] = molecular target: FcγRIIb, soluble extracellular domain (UniProt P31994); assay: SPR; fold change in affinity over wild-type v16463
[17] = molecular target: FcγRIIb, soluble extracellular domain (UniProt P31994); assay: SPR; IIb-Fold/IIaR-Fold (FcγRIIb against FcγRIIaR), vs. wild-type v16463
[18] = molecular target: FcγRIIaR, soluble extracellular domain (UniProt P12318); assay: SPR (General Methods Protocol 2): one-armed antibody captured on immobilised HER2, soluble receptor as analyte
[19] = molecular target: FcγRIIb, soluble extracellular domain (UniProt P31994); assay: as above
[20] = molecular target: Soluble FcγRIIb extracellular domain with C-terminal 10×His tag (UniProt P31994); assay: SPR (Protocol 2); ratio of FcγRIIb fold to FcγRIIaR fold over wild-type
[21] = molecular target: Soluble FcγRIIaR extracellular domain with C-terminal 10×His tag (UniProt P12318); assay: SPR (Protocol 2): full-size antibody captured on immobilised HER2, soluble receptor as analyte; fold over wild-type
[22] = molecular target: Soluble FcγRIIb extracellular domain with C-terminal 10×His tag (UniProt P31994); assay: as above
[23] = molecular target: Soluble FcγRIIaR extracellular domain with C-terminal 10xHis tag (UniProt P12318); assay: SPR, antibody captured on HER2, receptor as analyte
[24] = molecular target: Soluble FcγRIIb extracellular domain with C-terminal 10xHis tag (UniProt P31994); assay: as above
[25] = molecular target: Soluble FcγRIIb extracellular domain with C-terminal 10xHis tag (UniProt P31994); assay: SPR; ratio of the fold for FcγRIIb to the fold for FcγRIIaR
[26] = molecular target: Biotinylated FcγRIIb extracellular domain-Fc fusion (human IgG1 Fc L234A_L235A_D265S) (human) (UniProt P31994); assay: competition electrochemiluminescence (MSD), antibody on HER2-coated plate, biotinylated FcγRIIb-Fc; competitor FcγRIIaR-Fc
[27] = molecular target: Soluble FcγRIIaR extracellular domain with C-terminal 10×His tag (UniProt P12318); assay: SPR; KD ratio against wild-type v16463
[28] = molecular target: Soluble FcγRIIb extracellular domain with C-terminal 10×His tag (UniProt P31994); assay: SPR; KD ratio against wild-type v16463
[29] = molecular target: Soluble FcγRIIaR extracellular domain with C-terminal 10×His tag (UniProt P12318); assay: SPR, antibody captured on HER2 chip, receptor as analyte
[30] = molecular target: Soluble FcγRIIb extracellular domain with C-terminal 10×His tag (UniProt P31994); assay: as above
[31] = molecular target: Soluble FcγRIIb extracellular domain with C-terminal 10×His tag (UniProt P31994); assay: SPR; ratio of IIb-Fold to IIaR-Fold (FcγRIIb against FcγRIIaR)
[32] = molecular target: Biotinylated FcγRIIb extracellular domain-Fc fusion (human IgG1 Fc with L234A_L235A_D265S) (human) (UniProt P31994); assay: competition electrochemiluminescence assay; antibody on HER2, biotinylated FcγRIIb-Fc, competitor FcγRIIaR-Fc
[33] = molecular target: FcγRIIb (UniProt P31994); assay: SPR; IIb-Fold divided by IIaR-Fold (FcγRIIb against FcγRIIaR)
[34] = molecular target: FcγRIIaR (UniProt P12318); assay: SPR, antibody captured on immobilised HER2, receptor as analyte; fold affinity over WT v16463
[35] = molecular target: FcγRIIb (UniProt P31994); assay: as above
[36] = molecular target: FcγRIIb (UniProt P31994); assay: SPR; IIb-Fold divided by IIaR-Fold, selectivity for FcγRIIb over FcγRIIaR relative to wild-type
[37] = molecular target: FcγRIIIaF (UniProt P08637); assay: SPR, antibody captured on HER2 chip, receptor as analyte; fold change in affinity over wild-type
[38] = molecular target: FcγRIIaH (UniProt P12318); assay: as above
[39] = molecular target: FcγRIIaR (UniProt P12318); assay: as above
[40] = molecular target: FcγRIIb (UniProt P31994); assay: as above
[41] = molecular target: FcγRIa (UniProt P12314); assay: as above
[42] = molecular target: Soluble FcγRIIb extracellular domain with C-terminal 10xHis tag (UniProt P31994); assay: SPR; IIb-Fold/IIaR-Fold (FcγRIIb against FcγRIIaR)
[43] = molecular target: Soluble FcγRIIaR extracellular domain with C-terminal 10xHis tag (UniProt P12318); assay: SPR; fold change in affinity over wild-type v16463
[44] = molecular target: Soluble FcγRIIb extracellular domain with C-terminal 10xHis tag (UniProt P31994); assay: SPR; fold change in affinity over wild-type v16463
[45] = molecular target: Soluble FcγRIIaR extracellular domain with C-terminal 10xHis tag (UniProt P12318); assay: SPR (Biacore 4000), antibody captured on immobilised HER2, receptor as analyte
[46] = molecular target: Soluble FcγRIIb extracellular domain with C-terminal 10xHis tag (UniProt P31994); assay: as above
[47] = molecular target: Biotinylated FcγRIIb extracellular domain-Fc fusion (human IgG1 Fc with L234A_L235A_D265S) (human) (UniProt P31994); assay: competition electrochemiluminescence (MSD), antibody on coated HER2, biotinylated FcγRIIb-Fc with FcγRIIaR-Fc as competitor

Substance: Variant 27293, Launching Module 1 (A_G236N_G237A / B_G236D_G237F_S239D_S267V_H268D_Template_1), one-armed trastuzumab antibody
- IIb Selectivity [1]: 11.8
- IIaR-Fold wrt Control [2]: 1 fold
- IIb-Fold wrt Control [3]: 1 fold
- IIaR-fold [4]: 35.2 fold
- IIb-Fold [5]: 415 fold
- IIb Selectivity Fold wrt Control [6]: 1 fold
- Kd [7]: 8.8 nM
- Kd [8]: 3.5 nM
- ELISA (% of non-competed FcγRIIb signal in presence of 10x FcγRIIa) [9]: 70.8%

Substance: Variant 16463, wild-type one-armed trastuzumab antibody with heterodimeric IgG1 Fc
- IIaR-fold [10]: 1 fold
- IIb-Fold [11]: 1 fold
- IIb Selectivity [12]: 1 fold
- Kd [13]: 310 nM
- Kd [14]: 1400 nM

Substance: Variant 16463, wild-type one-armed trastuzumab antibody (OAA) with heterodimeric IgG1 Fc
- IIaR-Fold vs. WT [15]: 1 fold
- IIb-Fold vs. WT [16]: 1 fold
- IIb/IIaR Selectivity vs. WT [17]: 1 fold
- Kd [18]: 310 nM
- Kd [19]: 1400 nM

Substance: Variant 22128, full-size antibody (FSA) format of v19585 (trastuzumab, heterodimeric IgG1 Fc; A: L234F_G236N_H268Q_K274Q_A327G_A330K_P331S / B: L234F_G236D_S239D_V266L_S267A_H268D_K274Q_A327G_A330S_P331S)
- IIb/IIaR Selectivity (IIb-Fold/IIaR-Fold) [20]: 11.3
- IIaR-fold (fold change in affinity over wild-type) [21]: 3.3 fold
- IIb-fold (fold change in affinity over wild-type) [22]: 37.4 fold

Substance: v12 (IIb-specific comparator, symmetrical E233D_G237D_P238D_H268D_P271G_A330R) (antibody)
- IIaR-Fold (affinity fold over WT v16463) [23]: 1.4 fold
- Kd [23]: 220 nM
- IIb-Fold (affinity fold over WT v16463) [24]: 112 fold
- Kd [24]: 13 nM
- IIb Selectivity (IIb-Fold/IIaR-Fold) [25]: 80.5
- ELISA (% of non-competed FcγRIIb signal in presence of 10x FcγRIIa) [26]: 100%

Substance: Variant 22127, full-size antibody (FSA) format of v19540 (trastuzumab, heterodimeric IgG1 Fc; A: L234D_G236N_S267A / B: G236D_S239D_V266L_S267A_H268D)
- IIb/IIaR Selectivity (IIb-Fold/IIaR-Fold) [20]: 15.2
- IIaR-fold (fold change in affinity over wild-type) [21]: 1.6 fold
- IIb-fold (fold change in affinity over wild-type) [22]: 23.9 fold

Substance: v12, IIb-specific comparator with symmetrical E233D_G237D_P238D_H268D_P271G_A330R (Mimoto et al. 2013), trastuzumab antibody
- IIaR-fold [27]: 1.4 fold
- IIb-Fold [28]: 112 fold
- Kd [29]: 220 nM
- Kd [30]: 13 nM
- IIb Selectivity (IIb-Fold/IIaR-Fold) [31]: 80.5 fold
- ELISA (% of non-competed FcγRIIb signal in presence of 10x FcγRIIa) [32]: 100%

Substance: Variant 27362, Strat 3 control (A_G236N_G237A / B_G236D_G237F_S239D_S267V_H268D) (antibody)
- IIb Selectivity [33]: 9 fold
- IIaR-fold [34]: 1 fold
- IIb-Fold [35]: 9 fold

Substance: v12 (OAA), IIb-specific comparator, trastuzumab one-armed antibody with symmetrical E233D_G237D_P238D_H268D_P271G_A330R
- IIb/IIaR Selectivity (ratio (IIb-Fold/IIaR-Fold)) [36]: 82.9
- FcγR Binding (Fold Change over WT) [37]: 0.1 fold over WT
- FcγR Binding (Fold Change over WT) [38]: 0.1 fold over WT
- FcγR Binding (Fold Change over WT) [39]: 1.4 fold over WT
- FcγR Binding (Fold Change over WT) [40]: 112 fold over WT
- FcγR Binding (Fold Change over WT) [41]: 0 fold over WT

Substance: Variant 27293 (strat1_control; Launching Module 1: A_G236N_G237A B_G236D_G237F_S239D_S267V_H268D_Template_1) (antibody)
- IIaR-Fold (affinity fold over WT v16463) [23]: 35.2 fold
- IIaR-Fold wrt Control (v27293) [23]: 1 fold
- Kd [23]: 8.8 nM
- IIb-Fold (affinity fold over WT v16463) [24]: 415 fold
- IIb-Fold wrt Control (v27293) [24]: 1 fold
- Kd [24]: 3.5 nM
- IIb Selectivity (IIb-Fold/IIaR-Fold) [25]: 11.8
- IIb Selectivity Fold wrt Control (v27293) [25]: 1 fold
- ELISA (% of non-competed FcγRIIb signal in presence of 10x FcγRIIa) [26]: 70.8%

Substance: v12, symmetrical E233D_G237D_P238D_H268D_P271G_A330R (IIb-specific comparator) (antibody)
- IIb Selectivity [42]: 80.5 fold
- IIaR-fold [43]: 1.4 fold
- IIb-Fold [44]: 112 fold
- Kd [45]: 220 nM
- Kd [46]: 13 nM
- ELISA (% of non-competed FcγRIIb signal in presence of 10x FcγRIIa) [47]: 100%

Reference: patent publication US20240294646A1
